Where no end group is shown, it is not given here. Side-chain parts run from the residue outwards. [ ]: non-standard residue; d: D form. thiosuccinimide (maleimide) = thiosuccinimide linkage from the Cys thiol to the maleimide of 4-arm 5 kDa PEG; thiosuccinimide = thiosuccinimide linkage joining the Cys side chain to 4-arm 5 kDa PEG; pGlu = O=C1CC[C@@H](C(=O)O)N1; disulfide = not defined here; MAL = maleimide

Test [1] addresses CDH3-CD3-MSLN-CD3 TCE (SEQ ID NO 255). Briefly: KinExA equilibrium in solution, KD relative to peptide concentration, TCE 250 pM. In general terms: A kinetic exclusion assay measures how much of one partner remains free in solution.
Test [2] has as its target T1, DLL3xCD3 TCE SEQ ID NO 104.
T1 construct: Single-chain T cell engager; also called DLL3×CD3ε TCE
Described as above.

Test [3] concerns the target T2, FLT3xCD3 TCE SEQ ID NO 93.
T2 construct: Single-chain scFv-scFv-scFc T cell engager; also called FLT3×CD3ε TCE; FLT3_7 A8xCD3-scFc Bispecific HLE molecule
As to the kind of experiment: KinExA equilibrium in solution, Table 5. As for the experimental part:
(§1) 1. Preparation of NHS-activated sepharose fast-flow beads: [0565] 2. Fast flow sepharose suspension in 100% IPA, washed twice with milliQ H20, mild centrifugation to pool beads in between wash steps. [0566] 3. […] 4. Added 80 mM PDEA to activate the resin for thiol exchange, 10 mins, r.t. [0568] 5. […] 6. Added 30 μg/mL of binding peptide, […] […] (SEQ ID NO: 300), reaction for 1 hr to functionalize resin. [0570] 7. Quench with 10 mM L-Cys for 1 hour. [0571] 8.

Test [4] addresses T2, FLT3xCD3 TCE SEQ ID NO 93. Briefly: KinExA association kinetics, Table 5. As for the experimental part: as §1
Test [5] addresses T2, FLT3xCD3 TCE SEQ ID NO 93. Briefly: kinetics, Table 5. As for the experimental part:
as §1

In test [6] the target is T2, FLT3xCD3 TCE SEQ ID NO 93. As to the kind of experiment: Table 5, ratio to a reference peptide that the table does not name. Further details: reference not given here.
Test [7] has as its target T2, FLT3xCD3 TCE SEQ ID NO 93. Briefly: SPR solution competition, peptide titrated into fixed TCE, free TCE read on peptide capture surface. An excerpt:
(§2) For the binding assessment, Individual binding isotherms were constructed by titrating the respective peptide of interest into a fixed concentration of TCE-containing solution in PBST. At least 4 hrs equilibration time were allotted (r.t.) prior to analysis by SPR. For the analysis, a calibration curve was first constructed of the TCE analyte being assessed. […] The ‘free’ TCE concentration measured was plotted as a function of log peptide concentration and fit using non-linear regression analysis to a 4 parameter logistic function to derive an IC50.

The target of test [8] is T2, FLT3xCD3 TCE SEQ ID NO 93. Briefly: KinExA equilibrium in solution, KD relative to peptide concentration, TCE 125 pM.
Test [9] has as its target T2, FLT3xCD3 TCE SEQ ID NO 93. Briefly: KinExA equilibrium in solution, Table 5; single reference peptide QDGNEEMG (original CD3ε epitope). The procedure: as §1
Test [10] deals with T3, Steap 1xCD3 TCE SEQ ID NO 373 + 374 + 375.
T3 construct: also called STEAP1×CD3e heterodimeric TCE; Ab-A1 Xmab2+1
As to the kind of experiment: SPR solution competition, peptide titrated into fixed TCE, free TCE read on peptide capture surface.
Text: as §2

Test [11] addresses CDH3-CD3-MSLN-CD3 TCE (SEQ ID NO 255). Briefly: SPR, immobilised peptide, bivalent analyte model, fast component. On the technique in general: In SPR one partner is held on a chip, and binding of the other changes the refractive index at the surface.
Test [12] deals with T2, FLT3xCD3 TCE SEQ ID NO 93. As to the kind of experiment: SPR, peptide immobilised on CM5 (PDEA), TCE as analyte, kinetic 1:1 fit.
In test [13] the target is T3, Steap 1xCD3 TCE SEQ ID NO 373 + 374 + …. Described as above.
The target of test [14] is T1, DLL3xCD3 TCE SEQ ID NO 104. Described as above.
Test [15] concerns the target CDH3-CD3-MSLN-CD3 TCE (SEQ ID NO 255). As to the kind of experiment: SPR, peptide immobilised on CM5 (PDEA), TCE as analyte, steady state affinity.

Chain of CDH3-CD3-MSLN-CD3 TCE (SEQ ID NO 255) (chain, as listed by the source): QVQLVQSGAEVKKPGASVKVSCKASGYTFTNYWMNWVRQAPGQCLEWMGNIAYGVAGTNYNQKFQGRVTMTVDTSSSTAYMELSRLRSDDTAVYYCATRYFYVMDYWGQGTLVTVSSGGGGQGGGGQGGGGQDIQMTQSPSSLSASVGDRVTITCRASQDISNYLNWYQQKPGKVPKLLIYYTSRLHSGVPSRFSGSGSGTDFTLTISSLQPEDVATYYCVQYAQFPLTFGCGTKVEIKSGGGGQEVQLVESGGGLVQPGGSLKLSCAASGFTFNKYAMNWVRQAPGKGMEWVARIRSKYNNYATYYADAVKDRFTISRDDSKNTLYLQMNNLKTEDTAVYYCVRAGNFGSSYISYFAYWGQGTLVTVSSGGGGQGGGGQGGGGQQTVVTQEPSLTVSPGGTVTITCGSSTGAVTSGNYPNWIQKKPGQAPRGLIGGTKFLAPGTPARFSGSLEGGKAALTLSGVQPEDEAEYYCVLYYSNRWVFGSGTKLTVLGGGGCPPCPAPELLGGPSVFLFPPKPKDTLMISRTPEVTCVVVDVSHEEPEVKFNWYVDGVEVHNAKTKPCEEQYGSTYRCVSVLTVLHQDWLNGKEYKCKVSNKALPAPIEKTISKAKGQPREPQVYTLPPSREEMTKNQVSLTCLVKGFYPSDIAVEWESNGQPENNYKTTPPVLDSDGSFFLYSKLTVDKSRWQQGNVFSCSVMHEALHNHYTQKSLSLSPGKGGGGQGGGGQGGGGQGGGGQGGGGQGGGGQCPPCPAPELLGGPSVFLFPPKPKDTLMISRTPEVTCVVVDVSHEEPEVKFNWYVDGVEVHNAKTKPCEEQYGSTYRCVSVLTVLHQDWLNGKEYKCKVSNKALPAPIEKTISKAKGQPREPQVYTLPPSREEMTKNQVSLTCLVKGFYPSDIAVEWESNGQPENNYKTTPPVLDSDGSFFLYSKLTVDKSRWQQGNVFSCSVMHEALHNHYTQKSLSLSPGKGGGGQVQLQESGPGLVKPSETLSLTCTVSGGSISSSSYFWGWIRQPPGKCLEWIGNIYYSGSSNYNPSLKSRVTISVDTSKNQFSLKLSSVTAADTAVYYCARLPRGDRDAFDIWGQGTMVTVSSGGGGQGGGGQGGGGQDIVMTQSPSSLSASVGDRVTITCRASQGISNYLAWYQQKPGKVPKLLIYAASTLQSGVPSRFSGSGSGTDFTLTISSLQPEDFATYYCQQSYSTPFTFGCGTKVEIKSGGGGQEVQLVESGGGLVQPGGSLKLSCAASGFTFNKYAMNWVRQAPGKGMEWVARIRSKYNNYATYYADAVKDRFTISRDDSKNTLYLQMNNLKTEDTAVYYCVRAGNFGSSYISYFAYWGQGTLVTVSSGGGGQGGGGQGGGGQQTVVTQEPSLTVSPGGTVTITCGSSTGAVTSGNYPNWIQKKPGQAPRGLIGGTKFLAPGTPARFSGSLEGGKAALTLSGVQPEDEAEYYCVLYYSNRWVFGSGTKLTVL

For orientation: Kd means the equilibrium constant for the complex coming apart. With [pGlu]DGNEELKGC([thiosuccinimide-4‑arm PEG 20 kDa])-NH2 (also: 4-arm PEG conjugate, number of peptide copies not given here) [79674-1], the Kd in test [1] came out at 0.0638 nM; in test [2], 0.0372 nM.
In test [2], [pGlu]DGNEELKGC([thiosuccinimide-4‑arm PEG 5 kDa])-NH2 (also: 4-arm PEG conjugate, number of peptide copies not given here) [79675-1] came in with a dissociation constant Kd of 0.0623 nM.

B1: (pGlu-DGNEEMGKGMEENGDQC)4 -PEG(20 kDa) (peptide)
peptide: [pGlu]DGNEEMGKGMEENGDQC([disulfide-4‑arm PEG 20 kDa])
modifications: reading uncertain; also: four peptides on one 4-arm PEG, printed as pGlu-DGNEEMGKGMEENGDQC
notes: also called CD3ε PepPOL, v2; Pep-PEG v2
One may read the kon as the second-order rate constant of association. The term koff denotes a measure of how fast the partners let go of each other. The molecule B1 yielded a dissociation constant Kd in test [3] of 0.176 nM. The same molecule gave a kon in test [4] of 1.12e+07 M⁻¹ s⁻¹. This molecule also had a koff in test [5] of 0.00195 s⁻¹. In addition, in test [6], the fold-Kd turned out to be 203 fold, the fold-koff amounted to 0.01 fold and the fold-kon worked out at 16.2 fold.
In turn, QDGNEEMGQDGNEEMG [QDGNEEMG-QDGNEEMG] had a Kd in test [3] of 11 nM. Moreover, the kon in test [4] came out at 533000 M⁻¹ s⁻¹. The koff in [5] is 0.00586 s⁻¹. Moreover, in [6], the fold-Kd was found to be 3.25 fold, the fold-koff was 0.24 fold and the fold-kon came to 0.77 fold.
The term IC50 denotes the concentration that inhibits the measured activity by half. [pGlu]DGNEEMGKGMEENGDQC (Position 1 is written E for pE) [pGlu-DGNEEMGKGMEENGDQC] had a Kd in test [3] of 0.176 nM. Moreover, in test [7], the IC50 is 2.4 nM. In addition, the fold-Kd in [6] was 203 fold.

B2: (QDGNEEMGKGMEENGDQC)4 -PEG(20 kDa) (peptide)
peptide: QDGNEEMGKGMEENGDQC(4‑arm PEG 20 kDa)
modifications: also: four peptides on one 4-arm PEG
notes: Peptide-PEG conjugate with four peptides on one PEG; also called CD3ε PepPOL, v1 (20 kDa); 4-arm 20 kDa PepPOL conjugate
Consider B2, for which the Kd in test [3] was 22 nM. The kon in test [4] stood at 199000 M⁻¹ s⁻¹. The same molecule had a koff in test [5] of 0.0047 s⁻¹. For the same molecule, the fold-kon in test [6] was found to be 1.14 fold.
Regarding [pGlu]DGNEELKGC([thiosuccinimide-4‑arm PEG 5 kDa])-OH [72103-1], the Kd in test [8] amounted to 0.0777 nM.
Regarding [pGlu]DGNEELKPGC (Position 1 is written E for pGlu) [pGlu-DGNEELKPGC], the IC50 in test [7] was determined as 5.2 nM.

B3: QDGNEEMG-GMEENGDQ (peptide)
peptide: QDGNEEMGGMEENGDQ
notes: how the reversed half is joined is not explained
In [3], B3 had a Kd of 9.88 nM. The molecule further showed a kon in test [4] of 476000 M⁻¹ s⁻¹. The koff in test [5] was 0.00471 s⁻¹. Besides, in test [6], the fold-Kd was determined as 3.62 fold, the fold-koff turned out to be 0.19 fold and the fold-kon came out at 0.69 fold.
For QDGNEEMGKQDGNEEMG [QDGNEEMG-K-QDGNEEMG], the dissociation constant Kd in test [3] amounted to 8.05 nM. The on-rate (kon) in test [4] was found to be 448000 M⁻¹ s⁻¹. Further, the koff in [5] is 0.00497 s⁻¹. In test [6], the fold-Kd came out at 2.77 fold, the fold-koff was found to be 0.28 fold and the fold-kon turned out to be 0.56 fold.
As for QDGNEEMGK [QDGNEEMG-K], the Kd in test [3] is 22.3 nM. Further, the kon in test [4] is 806000 M⁻¹ s⁻¹. The molecule also gave a koff in test [5] of 0.0179 s⁻¹.
As for [pGlu]DGNEELPKPGC (Position 1 is written E for pGlu) [pGlu-DGNEELPKPGC], the IC50 in [7] was found to be 2.7 nM.
Molecule [pGlu]DGNEELKGC([MAL-PEG 10 kDa]) (also: four peptides per PEG) [(pGlu-DGNEELKGC)4 -MAL PEG(10 kDa)] gave a Kd in test [3] of 0.142 nM.
Same read-out and setting: the value for [pGlu]DGNEELKGC([MAL-PEG 5 kDa]) (also: four peptides per PEG) [(pGlu-DGNEELKGC)4 -MAL PEG(5 kDa)] was 0.142 nM.
On to QDGNEEMG, for which the IC50 in test [7] is 133 nM. In test [9], this molecule registered a dissociation constant (Kd) of 35.8 nM. The molecule also displayed an on-rate constant (kon) in test [4] of 692000 M⁻¹ s⁻¹. In test [5], this molecule registered a koff of 0.0248 s⁻¹.
As to [pGlu]DGNEELKGC (also called ID 14974) [pGlu-DGNEELKGC], the dissociation constant (Kd) was 0.142 nM in test [3]; 1.28 nM in test [12]; 2.57 nM in [13]; 1.3 nM in test [14]; 13.3 nM in test [15]. Besides, the IC50 in test [7] stood at 2.7 nM; in [10] it was 13.4 nM. The off-rate constant (koff) was 0.0212 s⁻¹ in test [11], 0.0024 s⁻¹ in [12], 0.00514 s⁻¹ in [13] and 0.00279 s⁻¹ in test [14]. The kon was 2.42e+06 M⁻¹ s⁻¹ in test [11], 1.88e+06 M⁻¹ s⁻¹ in [12], 2e+06 M⁻¹ s⁻¹ in test [13] and 2.14e+06 M⁻¹ s⁻¹ in test [14]. Further, the fold-Kd in test [6] is 252 fold.
As to [pGlu]DGTEELKGC (Position 1 is written E for pGlu) [pGlu-DGTEELKGC], the IC50 in [7] worked out at 39.7 nM; in test [10], 59.9 nM. For the same molecule, the results for the Kd in test [12], in test [13] and in test [14] were 8.88 nM, 35.2 nM and 14.8 nM, respectively. For the same molecule, the koff stood at 0.0285 s⁻¹ in test [12], 0.0734 s⁻¹ in [13] and 0.0713 s⁻¹ in [14]. In addition, the kon in test [12] was found to be 3.21e+06 M⁻¹ s⁻¹; in test [13], 2.09e+06 M⁻¹ s⁻¹; in test [14], 4.81e+06 M⁻¹ s⁻¹.
Take [pGlu]DGEEELKGC([thiosuccinimide (maleimide)-4‑arm PEG 5 kDa])-NH2 (also: 4-arm PEG conjugate, number of peptide copies not given here, TCE masking molecule) [79677-1]: in [2], the affinity, expressed as Kd, was 4.69 nM.
Take [pGlu]DGEEELKGC([thiosuccinimide-4‑arm PEG 20 kDa])-NH2 (also: 4-arm PEG conjugate, number of peptide copies not given here, TCE masking molecule) [79676-1]: the Kd in test [2] is 12.8 nM.
For [pGlu]DGVEELKGC (Position 1 is written E for pGlu) [pGlu-DGVEELKGC], the IC50 in test [7] stood at 9 nM; in test [10] it was 26.4 nM.
Take [pGlu]DGIEELKGC (Position 1 is written E for pGlu) [pGlu-DGIEELKGC]: the IC50 turned out to be 3.6 nM in [7] and 11.6 nM in test [10].
For the molecule [pGlu]DGEEELKGC [pGlu-DGEEELKGC], the figures for the concentration for half-maximal inhibition (IC50) in test [7] and in [10] were 14.7 nM and 28.6 nM, respectively. Moreover, the koff came out at 0.236 s⁻¹ in test [11], 0.0295 s⁻¹ in test [12], 0.0834 s⁻¹ in [13] and 0.0542 s⁻¹ in [14]. The kon in test [11] was 1.29e+06 M⁻¹ s⁻¹; in test [12], 4.04e+06 M⁻¹ s⁻¹; in test [13], 3.04e+06 M⁻¹ s⁻¹; in test [14], 2.64e+06 M⁻¹ s⁻¹. Further, the Kd in test [12] came out at 7.3 nM; in test [13] it was 27.4 nM; in test [14], 20.5 nM; in [15], 72.5 nM.
Regarding [pGlu]DGSEELKGC (Position 1 is written E for pGlu) [pGlu-DGSEELKGC], the IC50 in test [7] was determined as 8.2 nM; in test [10], 16.7 nM.

The values above are taken from patent US20260258083A1 (Amgen, published 2026).
